In the assay the target is human c-Met on cells (MKN-45, A549, HPAF, BxPC3, NCI-H441) (human, UniProt P08581 25-1390). Briefly: cell-based or functional assay.

The record followed here is patent US20180215833A1 (published 2018).

Sequence of human c-Met on cells (MKN-45, A549, HPAF, BxPC3, NCI-H441) (P08581 25-1390): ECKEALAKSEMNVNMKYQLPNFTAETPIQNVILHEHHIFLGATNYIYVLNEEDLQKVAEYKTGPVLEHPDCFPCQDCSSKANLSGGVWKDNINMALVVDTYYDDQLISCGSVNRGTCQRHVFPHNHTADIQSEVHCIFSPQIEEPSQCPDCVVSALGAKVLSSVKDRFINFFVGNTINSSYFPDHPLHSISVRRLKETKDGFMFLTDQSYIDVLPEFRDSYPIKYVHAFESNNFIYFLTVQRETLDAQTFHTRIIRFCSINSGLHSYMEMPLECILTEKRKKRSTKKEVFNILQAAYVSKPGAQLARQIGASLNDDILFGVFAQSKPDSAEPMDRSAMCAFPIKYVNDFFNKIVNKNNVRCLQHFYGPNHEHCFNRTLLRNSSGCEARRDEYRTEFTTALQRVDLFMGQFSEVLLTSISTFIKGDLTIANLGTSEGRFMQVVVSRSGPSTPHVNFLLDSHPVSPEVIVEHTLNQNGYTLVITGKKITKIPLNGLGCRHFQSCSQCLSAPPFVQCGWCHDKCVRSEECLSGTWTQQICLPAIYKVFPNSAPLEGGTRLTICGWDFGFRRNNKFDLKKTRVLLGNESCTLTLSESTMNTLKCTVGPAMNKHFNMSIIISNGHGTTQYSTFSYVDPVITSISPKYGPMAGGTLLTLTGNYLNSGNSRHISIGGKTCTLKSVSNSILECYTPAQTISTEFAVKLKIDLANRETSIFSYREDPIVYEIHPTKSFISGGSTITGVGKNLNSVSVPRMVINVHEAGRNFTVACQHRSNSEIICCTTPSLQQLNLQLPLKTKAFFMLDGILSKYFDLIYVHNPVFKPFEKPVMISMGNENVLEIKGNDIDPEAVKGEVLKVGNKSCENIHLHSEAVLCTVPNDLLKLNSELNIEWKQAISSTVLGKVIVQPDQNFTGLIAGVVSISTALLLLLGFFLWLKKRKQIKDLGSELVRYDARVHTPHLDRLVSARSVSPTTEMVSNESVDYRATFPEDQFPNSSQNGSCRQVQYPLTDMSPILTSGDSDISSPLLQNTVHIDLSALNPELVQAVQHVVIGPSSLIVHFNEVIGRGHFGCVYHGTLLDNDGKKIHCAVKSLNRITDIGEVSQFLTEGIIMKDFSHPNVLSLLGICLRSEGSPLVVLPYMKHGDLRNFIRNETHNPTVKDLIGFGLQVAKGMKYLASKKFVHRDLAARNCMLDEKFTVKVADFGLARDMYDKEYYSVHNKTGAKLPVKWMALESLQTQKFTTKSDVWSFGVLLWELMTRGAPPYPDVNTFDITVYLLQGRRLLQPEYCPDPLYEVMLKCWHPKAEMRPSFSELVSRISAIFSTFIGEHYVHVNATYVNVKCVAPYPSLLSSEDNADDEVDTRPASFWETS

B1: 38H10 (antibody, V domains shown)
VH: EVQLVQPGVELRNPGASVKVSCKASGYIFTMNSIDWVRQAPGQGLEWMGRIDPEDGGTKYAQKFQGRVTFTADTSTSTAYVELNSLRSEDTAVYYCARVDDYYLGYDYWGQGTQVTVSS
VL: EIVMTQSPSSVTASAGEKVTINCKSSQSVLWRSNQKNYLAWYQQRLGQSPRLLISWASIRESGVPDRFSGSGSTTDFTLTISSFQPEDAAVYYCQQGYSFPYTFGSGTRLEIK
As for B1, the “antibody-induced proliferation of BxPC3 cells, percentage of the proliferation obtained with 75 ng/ml HGF” value was below 20%.

B2: 40B8 (antibody, V domains shown)
VH: EVQLVQPGAELRNPGASVKVSCKASGYTFTNYVIDWVRQAPGQGLEWMGRIDPENGGTRYAQKFQGRVTFTADTSTSTAYVELSNLRSEDTAVYYCARLEDYELAYDYWGQGTQVTVSS
VL: DIVMTQTPSSVTASAGEKVTINCKSSQSVLLSSNQKNYLAWYQQRLGQSPRLLIYWASTRESGVPDRFSGSGSTTDFTLTISSFQPEDAAVYYCQQGVSFPLTFGQGTKVELK
Consider B2, for which the “ADCC, specific lysis of MKN-45 cells, EC50” value was determined as 4.6 ng/mL and the “antibody-induced proliferation of BxPC3 cells, percentage of the proliferation obtained with 75 ng/ml HGF” value was below 20%.

B3: Potelligent 36C4 (antibody, V domains shown)
VH: QVQLVESGPGLVKPSQTLSLTCAVSGGSITTNYYYWSWIRQSPGKGLEWMGVIAYDGSTDYSPSLKSRTSISRDTSKNQFSLQLSSVTPEDTAVYYCARDVRVIATGWATANALDAWGQGTLVTVSS
VL: QSVLTQPPSVSGSPGKTVTISCAGTSSDVGYGNYVSWYQQLPGTAPKLLIFAVSYRASGIPDRFSGSKSGNTAFLTISGLQSEDEADYYCASYRSSNNAAVFGGGTHLTVL
modifications: defucosylated (produced in Potelligent CHO cells)
Take B3: the “ADCC, 51Cr release assay on NCI-H441 cells, EC50” value stood at 40 ng/mL and the “ADCC, 51Cr release, lysis of NCI-H441 cells, IC50” value was determined as 0.13 ng/mL.

B4: 36C4E (antibody, V domains shown)
VH: B3 VH
VL: B3 VL
On to B4, for which the “ADCC, 51Cr release assay on NCI-H441 cells, EC50” value stood at 260 ng/mL.

B5: chimeric 224G11 (antibody, human IgG1, V domains shown)
VH: EVQLQQSGPELVKPGASVKISCKTSGYIFTAYTMHWVRQSLGESLDWIGGIKPNNGLANYNQKFKGKATLTVDKSSSTAYMDLRSLTSEDSAVYYCARSEITTEFDYWGQGTALTVSS
VL: DIVLTQSPASLAVSLGQRATISCRASESVDSYANSFMHWYQQKPGQPPKLLIYRASNLESGIPARFSGSGSRTDFTLTINPVEADDVATYYCQQSKEDPLTFGSGTKLEMK
On to B5, for which the “ADCC, specific lysis of MKN-45 cells, EC50” value worked out at 2.8 ng/mL.
